Measured values as given in US20090074762A1.

Molecular target: T1, TweakR on cells (TweakR-expressing cells, TweakR transfectant cell line, A375 melanoma cells, tumor tissue) (human) (UniProt Q9NP84)
T1 sequence: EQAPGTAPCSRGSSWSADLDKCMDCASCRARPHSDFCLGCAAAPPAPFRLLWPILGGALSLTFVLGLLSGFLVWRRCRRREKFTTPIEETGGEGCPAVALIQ
Test: cell-based or functional assay

B1: anti-TweakR antibody ITEM4 (antibody, from another filing, V domains shown)
VH: QVQLQQSGPELVKPGASVKMSCKASGYTFTDFIIAWVKQRTGQGLEWIGEIYPGTGRTYYSEKFRGKATLTADKSSNTAYMQLSSLTSVDSAVYFCARRTIYYDYDGDYWGQGTTLTVSS
VL: DIVMTQAAFSNPVTLGTSASISCRSSKSLLHSNGITYLYWYLQKPGQSPQLLIYQMSNLASGVPDRFSSSGSGTDFTLRISRVEAEDVGVYYCAHNLELPWTFGGGTKLELK
agonist activity (IL-8 release assay): 12%
